Results on 53 substances are retold here after US20260062456A1.

Several values for one entry are separate records, joined by “and”; a condition that tells them apart may be missing. Equal entries are not always repeated.

For one assay, the target named is PD-1 (human) (UniProt Q15116). Kind of assay: cell-based or functional assay.
The target in the next assay is T1, CD226 (UniProt Q15762).
T1 sequence (looked up): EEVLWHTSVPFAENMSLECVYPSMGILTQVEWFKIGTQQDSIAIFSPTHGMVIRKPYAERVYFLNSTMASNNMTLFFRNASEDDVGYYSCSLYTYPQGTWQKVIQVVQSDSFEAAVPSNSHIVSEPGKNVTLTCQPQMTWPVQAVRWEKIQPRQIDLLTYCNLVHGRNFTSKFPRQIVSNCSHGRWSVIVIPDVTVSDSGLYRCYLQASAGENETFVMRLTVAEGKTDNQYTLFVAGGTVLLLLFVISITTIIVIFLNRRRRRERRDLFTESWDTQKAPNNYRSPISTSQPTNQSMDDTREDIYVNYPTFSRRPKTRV
Kind of assay: flow cytometry, cells expressing CD226. On the technique in general: A flow cytometer gives signals particle by particle.

Assay [1] has as its target human PD-1 and human TIGIT both stably expressed on Jurkat cells (Jurkat/PD-1/TIGIT cells). Kind of assay: flow cytometry, Jurkat/PD-1/TIGIT cells, 20 nM.
The target in assay [2] is PD-1-Fc (recombinant PD-1-Fc fusion protein) (human) (UniProt Q15116). The assay can be described thus: ForteBio Octet, PD-1-Fc on sensor.
Chain of PD-1-Fc (recombinant PD-1-Fc fusion protein) (human) (Q15116 25-167 limits assumed): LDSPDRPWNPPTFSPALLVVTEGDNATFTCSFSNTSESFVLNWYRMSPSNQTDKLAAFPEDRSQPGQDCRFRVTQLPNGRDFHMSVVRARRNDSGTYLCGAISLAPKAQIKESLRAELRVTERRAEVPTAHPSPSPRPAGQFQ

Chain of PD-1 (human) (Q15116 25-288): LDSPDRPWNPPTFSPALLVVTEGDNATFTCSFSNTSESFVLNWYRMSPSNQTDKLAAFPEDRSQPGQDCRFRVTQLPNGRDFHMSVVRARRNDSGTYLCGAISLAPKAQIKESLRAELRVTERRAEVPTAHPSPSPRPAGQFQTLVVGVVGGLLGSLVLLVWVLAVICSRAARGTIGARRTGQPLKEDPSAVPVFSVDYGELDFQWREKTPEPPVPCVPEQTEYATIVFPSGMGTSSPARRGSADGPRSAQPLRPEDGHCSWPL

In the case of “variant PD-L1 IgV-Fc N45T, L74P, S75P (Fc fusion)”, in the assay with PD-1 (human), the Average Relative Luminescence Units was determined as 2030 RLU and the Fold increase in IL2 reporter signal was 0.91 fold. In the assay with PD-1 (human), “variant PD-L1 IgV-Fc I20L, K23E, D43G, N45D, V58A, N78I (Fc fusion)” came in with an Average Relative Luminescence Units of 3510 RLU and a Fold increase in IL2 reporter signal of 1.57 fold. With “variant CD155 IgV-Fc V9L, V11M, P18S, N35S, S54G, Q62K, L79P, L104M, T107M, V115M (Fc fusion)”, in the assay with CD226, the MFI at 25 nM stood at 2320 MFI.

In the assay with PD-1 (human), “variant PD-L1 IgV-Fc A33D, N78I (Fc fusion)” returned an Average Relative Luminescence Units of 2060 RLU and a Fold increase in IL2 reporter signal of 0.92 fold. The corresponding values for “variant PD-L1 IgV-Fc E27G, N45T, V50A, N78I (Fc fusion)” are 1960 RLU and 0.88 fold. The corresponding values for “variant PD-L1 IgV-Fc K28N, M41V, N45T, H51N, K57E (Fc fusion)” are 2350 RLU and 1.05 fold. With “variant PD-L1 IgV-Fc I20L, D43G, N45D, V58A, N78I (Fc fusion)”, in the assay with PD-1 (human), the Average Relative Luminescence Units was found to be 4190 RLU and the Fold increase in IL2 reporter signal amounted to 1.88 fold. The like results for “variant PD-L1 IgV-Fc I20L, D43G, N45D, N78I (Fc fusion)” were, in that order, 3470 RLU and 1.56 fold. The like results for “variant PD-L1 IgV-Fc V11E, I20L, I36T, N45D, H60R, S75P (Fc fusion)” were, in that order, 2280 RLU and 1.02 fold. The like results for “variant PD-L1 IgV-Fc N45T, N78I (Fc fusion)” were, in that order, 2180 RLU and 0.98 fold. “variant PD-L1 IgV-Fc I20L, D43G, N45D, V58A, N78I, D90G, G101D (Fc fusion)”: in the assay with PD-1 (human), the Average Relative Luminescence Units stood at 2000 RLU and the Fold increase in IL2 reporter signal is 0.9 fold. The corresponding values for “variant PD-L1 IgV-Fc I20L, I36T, N45D (SEQ ID NO 298) (Fc fusion)” are 2210 RLU and 0.99 fold. In the assay with PD-1 (human), “variant PD-L1 IgV-Fc E40G, D43V, N45T, V50A (Fc fusion)” displayed an Average Relative Luminescence Units of 2220 RLU and a Fold increase in IL2 reporter signal of 0.99 fold. The corresponding values for “variant PD-L1 IgV-Fc E27G, N45T, M97I (Fc fusion)” are 1970 RLU and 0.88 fold. Take “Fc Control (homodimer) (from UniProt P0DOX5 218-449)”: the MFI at 20 nM in assay [1] is 478 MFI. Consider “variant PD-L1 IgV-Fc I20L, K28E, D43G, N45D, V58A, Q89R, G101G-ins (G101GG) (Fc fusion)”, for which, in the assay with PD-1 (human), the Average Relative Luminescence Units turned out to be 4290 RLU and the Fold increase in IL2 reporter signal worked out at 1.93 fold. In the assay with PD-1 (human), “variant PD-L1 IgV-Fc I20L, M41K, D43G, N45D (Fc fusion)” displayed an Average Relative Luminescence Units of 2110 RLU and a Fold increase in IL2 reporter signal of 0.95 fold. The like results for “variant PD-L1 IgV-Fc V11A, I20L, E27G, D43G, N45D, H51Y, S99G (Fc fusion)” were, in that order, 3380 RLU and 1.52 fold.

For “variant PD-L1 IgV-Fc A33D, D43G, N45D, V58A, S75P (Fc fusion)”, in the assay with PD-1 (human), the Average Relative Luminescence Units stood at 2310 RLU and the Fold increase in IL2 reporter signal came out at 1.04 fold.

On to “variant PD-L1 IgV-Fc I20L, N45T (Fc fusion)”, for which, in the assay with PD-1 (human), the Average Relative Luminescence Units was 2180 RLU and the Fold increase in IL2 reporter signal is 0.98 fold.

In the assay with PD-1 (human), “variant PD-L1 IgV-Fc D43G, N45D, V58A (Fc fusion)” showed an Average Relative Luminescence Units of 2460 RLU and a Fold increase in IL2 reporter signal of 1.11 fold. The corresponding values for “variant PD-L1 IgV-Fc E27G, N45T, V50A (Fc fusion)” are 2000 RLU and 0.9 fold.

Turning to “PD-L2 IgV-Fc variant H15Q, S67L, R76G, I85F (Fc fusion)”, in assay [2], the Fortebio binding to PD-1-Fc Response Units (Response Units) turned out to be 0.025. In the assay with PD-1 (human), “variant PD-L1 IgV-Fc K23R, N45T, N78I (Fc fusion)” came in with an Average Relative Luminescence Units of 2690 RLU and a Fold increase in IL2 reporter signal of 1.21 fold.

In the assay with PD-1 (human), “variant PD-L1 IgV-Fc I20L, E27G, N45T, V50A (Fc fusion)” registered an Average Relative Luminescence Units of 1800 RLU and a Fold increase in IL2 reporter signal of 0.81 fold. In the assay with PD-1 (human), “variant PD-L1 IgV-Fc A33D, N78S (Fc fusion)” registered an Average Relative Luminescence Units of 2060 RLU and a Fold increase in IL2 reporter signal of 0.92 fold. The corresponding values for “variant PD-L1 IgV-Fc I20L, E27G, D43G, N45D, V58A, N78I (Fc fusion)” are 4590 RLU and 2.06 fold. In assay [1], “Full length ECD of PD-L1 (R&D Systems) (from UniProt Q9NZQ7 19-238) (Fc fusion)” came in with an MFI at 20 nM of 10400 MFI. In the case of variant PD-L1 IgV-Fc M41K (Fc fusion), in the assay with PD-1 (human), the Average Relative Luminescence Units turned out to be 2150 RLU and the Fold increase in IL2 reporter signal was 0.97 fold. The like results for “variant PD-L1 IgV-Fc I20L, I36T, N45D (SEQ ID NO 254) (Fc fusion)” were, in that order, 2110 RLU and 0.95 fold. The like results for “variant PD-L1 IgV-Fc A33D, S75P (SEQ ID NO 287) (Fc fusion)” were, in that order, 2040 RLU and 0.92 fold. The like results for “variant PD-L1 IgV-Fc M18I, M41K, D43G, H51R, N78I (Fc fusion)” were, in that order, 2120 RLU and 0.95 fold.

Turning to “variant PD-L1 IgV-Fc D43G, N45D, L56Q, V58A, G101G-ins (G101GG) (Fc fusion)”, in the assay with PD-1 (human), the Average Relative Luminescence Units stood at 3930 RLU and the Fold increase in IL2 reporter signal was 1.76 fold. Regarding “variant PD-L1 IgV-Fc I20L, E27G, D43G, N45T, V50A (Fc fusion)”, in the assay with PD-1 (human), the Average Relative Luminescence Units worked out at 2010 RLU and the Fold increase in IL2 reporter signal stood at 0.9 fold. Consider “variant PD-L1 IgV-Fc E27G, N45T, K57R (Fc fusion)”, for which, in the assay with PD-1 (human), the Average Relative Luminescence Units came to 2030 RLU and the Fold increase in IL2 reporter signal was determined as 0.91 fold. As for “Wild-type CD155-ECD-Fc (from UniProt P15151 21-343) (Fc fusion)”, the MFI at 20 nM in assay [1] was 1200 MFI. In the assay with PD-1 (human), variant PD-L1 IgV-Fc N78L (Fc fusion) returned an Average Relative Luminescence Units of 2240 RLU and a Fold increase in IL2 reporter signal of 1.01 fold.

“variant PD-L1 IgV-Fc A33D, E53V (Fc fusion)”: in the assay with PD-1 (human), the Average Relative Luminescence Units was 2140 RLU and the Fold increase in IL2 reporter signal turned out to be 0.96 fold.

In the assay with PD-1 (human), variant PD-L1 IgV-Fc N45T (Fc fusion) came in with an Average Relative Luminescence Units of 2190 RLU and a Fold increase in IL2 reporter signal of 0.98 fold. The like results for “variant PD-L1 IgV-Fc I20L, N45T, N78I (Fc fusion)” were, in that order, 2070 RLU and 0.93 fold. In the case of “variant PD-L1 IgV-Fc N45T, V50A, N78I (Fc fusion)”, in the assay with PD-1 (human), the Average Relative Luminescence Units was 1900 RLU and the Fold increase in IL2 reporter signal came to 0.85 fold. The corresponding values for “variant PD-L1 IgV-Fc T19I, E27G, N45I, V50A, N78I, M97K (Fc fusion)” are 2050 RLU and 0.92 fold. The like results for “variant PD-L1 IgV-Fc A33D, S75P, D85E (Fc fusion)” were, in that order, 2220 RLU and 0.99 fold. Regarding “variant PD-L1 IgV-Fc I20L, K23E, D43G, N45D, V50A, N78I (Fc fusion)”, in the assay with PD-1 (human), the Average Relative Luminescence Units came out at 3590 RLU and the Fold increase in IL2 reporter signal was found to be 1.61 fold. The like results for “variant PD-L1 IgV-Fc K23R, D43G, N45D (Fc fusion)” were, in that order, 2360 RLU and 1.06 fold. The like results for “variant PD-L1 IgV-Fc I20L, I36T, N45D, I47T (Fc fusion)” were, in that order, 2250 RLU and 1.01 fold.

For “variant PD-L1 IgV-Fc N45T, V50A (Fc fusion)”, in the assay with PD-1 (human), the Average Relative Luminescence Units was 2080 RLU and 2200 RLU; the Fold increase in IL2 reporter signal was 0.93 fold and 0.99 fold. Turning to “variant PD-L1 IgV-Fc A33D, N45T (Fc fusion)”, in the assay with PD-1 (human), the Average Relative Luminescence Units stood at 2000 RLU and the Fold increase in IL2 reporter signal amounted to 0.9 fold. The like results for “variant PD-L1 IgV-Fc I20L, A33D, D43G, N45D, V58A, N78I (Fc fusion)” were, in that order, 4380 RLU and 1.97 fold. The like results for “variant PD-L1 IgV-Fc N45T, S75P (Fc fusion)” were, in that order, 1960 RLU and 0.88 fold.

In the assay with PD-1 (human), “variant PD-L1 IgV-Fc Y14S, K28E, N45T (Fc fusion)” came in with an Average Relative Luminescence Units of 2150 RLU and a Fold increase in IL2 reporter signal of 0.97 fold. With PD-L2 IgV-Fc variant H15Q (Fc fusion), the Fortebio binding to PD-1-Fc Response Units (Response Units) in assay [2] was 0.007. In the assay with PD-1 (human), “variant PD-L1 IgV-Fc I20L, I36T, N45T, V50A (Fc fusion)” had an Average Relative Luminescence Units of 2160 RLU and a Fold increase in IL2 reporter signal of 0.97 fold.
